# Assay results reported in patent US20250144228A1, “NANOBODY-DRUG ADDUCTS AND USES THEREOF” (priority 2022, published 2025).
# What was measured:
# [1] = system: P. falciparum merozoite surface protein 1 (MSP-1) subunits p83, p38, p42; assay: ELISA of biotinylated VHHs on plate-bound MSP-1 subunits; assay type: binding, Plasmodium falciparum; settings: streptavidin-HRP and TMB
# Procedure: (§1) FIGS. 13A-13D: VHH nanobodies bind specifically to Plasmodium falciparum: merozoite surface protein 1 (MSP-1). FIG. 13A: Schematic of the PfMSP-1 pro-peptide and the four inclusive subunits: p83, p30, p38, and p42. FIG. 13B: Purified […] B4, anti-p38 B8, anti-p42 A6, and anti-p42 G11 VHHs were biotinylated and these VHHs were incubated with plate bound subunits proteins as indicated. Binding ELISA was detected by using streptavidin-HRP and tetramethylbenzidine (TMB). Data are represented as optical density (OD). Error bars show SEM. FIG. 13C: Western blot of VHHs against the three PfMSP-1 subunits, the full length p190 pro-peptide, and some 3D7 lysates from −38-44 hour 3D7 schizonts. FIG. 13D: Flow cytometry on synchronized ˜38-44 hour 3D7 schizonts using fluorescently (Cy5) labeled VHHs.
# (§2) Purified VHH nanobodies were biotinylated and tested for specificity toward isolated MSP-1 subunits. Anti-p83 B4, anti-p38 B8, anti-p42 A6, and anti-p42 G11 VHHs were each incubated with plate-bound p83, p38, p42, and p42, and binding to the plates was detected by an enzyme-linked immunoassay (ELISA) using streptavidin-horseradish peroxidase (HRP) and tetramethylbenzidine (TMB). […] Finally, purified VHHs were tested against live ˜38-44 hour 3D7 schizonts in a flow cytometry assay.
# [2] = target: T1, PfMSP-1 subunits, full length p190 pro-peptide (Plasmodium falciparum, UniProt Q8I0U8); assay type: binding
# T1 construct: the three PfMSP-1 subunits, the full length p190 pro-peptide
# T1 sequence (Q8I0U8 20-1699): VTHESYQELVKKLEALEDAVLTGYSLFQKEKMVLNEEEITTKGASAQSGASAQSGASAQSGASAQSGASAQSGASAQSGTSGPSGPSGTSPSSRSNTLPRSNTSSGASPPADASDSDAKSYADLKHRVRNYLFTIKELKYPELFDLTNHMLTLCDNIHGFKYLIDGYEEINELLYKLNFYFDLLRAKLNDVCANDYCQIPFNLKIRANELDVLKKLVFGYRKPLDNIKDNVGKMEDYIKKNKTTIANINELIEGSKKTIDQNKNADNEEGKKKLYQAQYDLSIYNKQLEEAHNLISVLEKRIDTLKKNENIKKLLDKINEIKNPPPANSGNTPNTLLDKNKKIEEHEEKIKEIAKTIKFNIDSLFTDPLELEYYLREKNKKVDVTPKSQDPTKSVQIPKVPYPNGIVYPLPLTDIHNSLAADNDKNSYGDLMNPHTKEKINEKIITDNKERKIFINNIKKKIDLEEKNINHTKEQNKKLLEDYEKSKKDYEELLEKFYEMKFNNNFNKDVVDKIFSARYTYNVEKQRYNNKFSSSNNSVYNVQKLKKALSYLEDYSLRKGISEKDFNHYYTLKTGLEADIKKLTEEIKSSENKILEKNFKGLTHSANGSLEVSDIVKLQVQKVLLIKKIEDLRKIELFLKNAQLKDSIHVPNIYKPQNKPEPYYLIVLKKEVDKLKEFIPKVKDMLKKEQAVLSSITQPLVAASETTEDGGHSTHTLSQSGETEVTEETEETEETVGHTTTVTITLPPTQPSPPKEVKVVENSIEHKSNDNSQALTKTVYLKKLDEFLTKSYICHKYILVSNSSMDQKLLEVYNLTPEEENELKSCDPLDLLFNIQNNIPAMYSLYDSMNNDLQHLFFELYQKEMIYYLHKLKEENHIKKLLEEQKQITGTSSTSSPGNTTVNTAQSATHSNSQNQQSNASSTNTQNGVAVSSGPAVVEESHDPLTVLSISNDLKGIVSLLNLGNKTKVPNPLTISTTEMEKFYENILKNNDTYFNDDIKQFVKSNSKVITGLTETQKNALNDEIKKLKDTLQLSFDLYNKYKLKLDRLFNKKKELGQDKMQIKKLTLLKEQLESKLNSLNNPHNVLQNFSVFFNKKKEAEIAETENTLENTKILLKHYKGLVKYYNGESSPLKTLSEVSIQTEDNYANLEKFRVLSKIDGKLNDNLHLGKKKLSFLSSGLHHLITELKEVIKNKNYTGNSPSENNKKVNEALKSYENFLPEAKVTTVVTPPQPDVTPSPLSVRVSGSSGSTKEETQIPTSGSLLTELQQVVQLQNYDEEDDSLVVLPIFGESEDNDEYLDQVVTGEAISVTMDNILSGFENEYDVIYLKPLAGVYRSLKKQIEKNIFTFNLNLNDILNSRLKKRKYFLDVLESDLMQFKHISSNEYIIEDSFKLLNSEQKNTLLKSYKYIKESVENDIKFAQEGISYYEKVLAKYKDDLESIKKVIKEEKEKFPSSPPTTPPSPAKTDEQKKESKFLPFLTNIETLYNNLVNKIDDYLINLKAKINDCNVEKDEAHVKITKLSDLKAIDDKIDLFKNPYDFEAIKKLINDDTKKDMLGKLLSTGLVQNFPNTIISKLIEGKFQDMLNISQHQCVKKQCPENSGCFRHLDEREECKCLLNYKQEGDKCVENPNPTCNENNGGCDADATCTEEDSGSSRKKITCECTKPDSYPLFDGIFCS
# Procedure: as §1, with “FIG.” for “FIGS. 13A-13D: VHH nanobodies bind specifically to Plasmodium falciparum: merozoite surface protein 1 (MSP-1). FIG.”
# as §2
# [3] = system: PfMSP-1 subunits, full length p190 pro-peptide; assay type: binding, Plasmodium falciparum
# Procedure: as §1, with “FIG.” for “FIGS. 13A-13D: VHH nanobodies bind specifically to Plasmodium falciparum: merozoite surface protein 1 (MSP-1). FIG.”
# as §2
# mouse IgG2b = mouse IgG2b (Mus musculus, UniProt P01837); assay type: binding; settings: mouse IgG2b-coated ELISA plates
Molecule,binding to plate-bound MSP-1 subunits (ELISA) [1],binding to lysate from ˜38-44 hour 3D7 schizonts [2],binding to MSP-1 subunits and pro-peptide p190 (gel electrophoresis / Western blot) [3],binding to mouse IgG2b (in words) (mouse IgG2b)
"Anti-p83 B4: VHH specific for P. falciparum MSP-1 p83, SEQ ID NO: 12 (protein) VHH: QLQLVESGGGLAQAGGSLRLSCAASGRTSSTKPMGWFRQAPGLEREFVASISWLGGSTLYSDSVKGRFTISRDNAKNTVYLQMNSLKSEDTAVYYCAGGTSAYSGRDSSRYEYWGQGTQVTVSSLPETGGHHHHHH",bind specifically to one subunit,observed to bind,"bind to one subunit of MSP-1 and to the MSP-1 pro-peptide (p190), but not to any other subunit",–
"VHHkappa: commercially available anti-mouse kappa chain VHH (nanobody clone TP1170), SEQ ID NO: 1 (protein) VHH: QVQLVESGGGWVQPGGSLRLSCAASGFTFSDTAMMWVRQAPGKGREWVAAIDTGGGYTYYADSVKGRFTISRDNAKNTLYLQMNSLKPEDTARYYCAKTYSGNYYSNYTVANYGTTGRGTLVTVSSGG",–,–,–,nanomolar affinity
